Laboratory results taken from patent publication US20220281980A1 (Bristol-Myers Squibb, published 2022).

T1: human MICA/B endogenously expressed on SW480 cells (human, UniProt Q29983 24-383)
T1 construct: whole, on cells
T1 sequence (looked up): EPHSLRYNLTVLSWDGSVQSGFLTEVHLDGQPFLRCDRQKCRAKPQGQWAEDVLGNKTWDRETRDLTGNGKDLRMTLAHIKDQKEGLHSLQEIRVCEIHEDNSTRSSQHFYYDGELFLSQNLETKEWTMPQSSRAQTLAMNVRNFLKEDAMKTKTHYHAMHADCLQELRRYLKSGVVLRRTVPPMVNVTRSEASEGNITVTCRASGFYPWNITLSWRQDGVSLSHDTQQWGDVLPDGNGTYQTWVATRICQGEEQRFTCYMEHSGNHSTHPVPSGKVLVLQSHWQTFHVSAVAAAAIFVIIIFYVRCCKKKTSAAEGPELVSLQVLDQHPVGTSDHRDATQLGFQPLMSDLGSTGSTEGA

T2: human MICB expressed on transduced cells (human, UniProt Q29980 23-382)
T2 construct: also called MICB*005
T2 chain: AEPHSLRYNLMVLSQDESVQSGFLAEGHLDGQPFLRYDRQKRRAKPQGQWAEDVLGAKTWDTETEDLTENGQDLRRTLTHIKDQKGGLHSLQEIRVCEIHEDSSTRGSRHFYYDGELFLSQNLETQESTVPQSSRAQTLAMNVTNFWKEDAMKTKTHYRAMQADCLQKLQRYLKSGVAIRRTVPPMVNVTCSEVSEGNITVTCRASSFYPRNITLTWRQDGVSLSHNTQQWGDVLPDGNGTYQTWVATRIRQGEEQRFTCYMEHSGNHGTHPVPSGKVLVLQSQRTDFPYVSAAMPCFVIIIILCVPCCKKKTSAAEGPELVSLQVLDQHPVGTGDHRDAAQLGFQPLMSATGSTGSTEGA

B1: MICA.36 (antibody, V domains shown)
VH: QVQLVESGGGVVQPGRSLRLSCAASGFTFSNYAMHWVRQAPGEGLEWVALIWYDGSNKFYGDSVKGRFTISRDNSKNTLYLQMNSLSAEDTAVYYCAREGSGHYWGQGTLVTVSS
VL: AIQLTQSPSSLSASVGDRVTITCRASQGISSALAWYQQKPGKVPKSLIYDASSLESGVPSRFSGSGSGTDFTLTISSLQPEDFATYYCQQFNSYPITFGQGTRLEIK
notes: it says that the name implies no specific constant region; Radioiodinated in the Scatchard assay; also called MICA.36 antibody
B2: 19G6 (antibody, V domains shown)
VH: B1 VH
VL: B1 VL
notes: Hybridoma antibody from human IgG transgenic mice, parent of MICA.36; also called 19G6 mAb; hybridoma 19G6

Key:
[1] = biological target: T1, human MICA/B endogenously expressed on …; test: Scatchard analysis, 125I-MICA.36 on SW480 cells; SW480 cells (FIG. 7G)
Protocol: (§1) Nonspecific binding was determined by binding in the presence of a titration of a 100 fold molar excess of unlabeled antibody and was subtracted from total counts per minute (CPM) to calculate specific binding. A linear standard curve of ¹²⁵I-MICA.36 concentration versus CPM was used to extrapolate specific activity, maximal nM bound ¹²⁵I-MICA.36 and thereby calculate receptor number per cell.
(§2) Specific activity of the iodinated MICA.36 was determined by plotting antibody titrations against the associated CPMs in a standard curve (FIG. 7A). The specific activity was calculated to be 164,214 CPM in 1 nM of ¹²⁵I-MICA.36. The number of receptors per cell was calculated by the following equation: (Bmax)×(Avogadro's number)×(Assay Volume)/# of cells per well.

[2] = biological target: T2, human MICB expressed on transduced cells; test: saturation binding of 125I-labelled antibody on CHO-MICB cells, 12500 per well; fit of total binding, non-specific binding not subtracted; x axis without unit
Protocol: as §1, §2

[3] = biological target: T3, cynomolgus monkey MICA/B clone #4 expressed on CHO cells (cynomolgus monkey); test: flow cytometry (GMFI, FACSCalibur), CHO cells with cyno MICA #4; unit from the x axis; curve from about 13000 at 0.1 ug/ml to about 94500 GMFI at 40 ug/ml
T3 construct: whole, on cells; also called cyno#4; CHO-cyno MICA clone #4

Binder | Kd [1] [nM] | Kd of the total-binding curve [2] [nM] | EC50 [3] [µg/mL]
B1 | ~0.4 | 2.8 | –
B2 | – | – | 0.161
